Measured values from patent publication US20190048074A1 (Regeneron, published 2019).

Tests used:
[1] = molecular target: T1, human Apelin receptor (hAPLNR) in PathHunter eXpress AGTRL1 CHO-K1 β-Arrestin cells (human, UniProt P35414 1-380); test: cell-based or functional assay
T1 sequence: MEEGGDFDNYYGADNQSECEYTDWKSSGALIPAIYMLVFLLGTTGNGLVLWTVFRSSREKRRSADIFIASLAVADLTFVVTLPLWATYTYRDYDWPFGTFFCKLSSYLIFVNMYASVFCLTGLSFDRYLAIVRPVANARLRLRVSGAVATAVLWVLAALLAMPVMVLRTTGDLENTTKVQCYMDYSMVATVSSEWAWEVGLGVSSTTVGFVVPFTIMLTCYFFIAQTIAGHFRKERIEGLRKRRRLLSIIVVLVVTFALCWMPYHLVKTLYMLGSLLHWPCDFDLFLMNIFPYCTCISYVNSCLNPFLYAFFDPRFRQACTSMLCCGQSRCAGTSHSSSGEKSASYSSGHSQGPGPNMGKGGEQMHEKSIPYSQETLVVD

full-length human APLNR = molecular target: T2, full-length human APLNR (human, UniProt P35414 1-380); test: cell-based or functional assay
T2 sequence: T1 sequence

% Activation at 500 nM antibody or Apelin-antibody fusion [1]: 2%
% Inhibition at 100 nM mAb, in the presence of 100 ρM Apelin (at 7.5 µM Forskolin) (full-length human APLNR): 3%
B1: H4H9093P (antibody, V domains shown)
VH: EVQLVESGGGLVKPGGSLRLSCAASGITFSNAWMSWVRQAPGKGLEWVGRFKGKADGGTVDYAAPVKGRFTISRDDSKNTLYLQMNSLKNEDTAVYYCTTGRITMVRGVLGYWGQGTLVTVSS
VL: not shown
